Assay: label from the status in PepcDB records
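Further: failed if final PepcDB status was selected cloned or expressed and not failed if soluble or beyond.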

| Sequence | protein production |
| --- | --- |
| MDLQGSVIKLQAAEAAGCKSPGRLLIIYLRPDAPRPQACASSVPAAMNRFKASKFRHMEARPSRREAWISDIRAGTTATCGNHIKSSCSLIAFNSDRPGVLGIISLEGHEENKRHVTYLGCHSDLVTDLDFSPFDDFLLASGSADRTIKLWRLSSTGEALPSVPGVVLGPEELPVDVLQFHPTADGVLVSTAGRTVKVWDVAKQQHLTELEAHKDLVQSAVWSRDGATVGTACKDKQLRIFDPRARAQASQSTQAHENNRDIRLAWTGIQEYLVSTGFNQMREREAKLWDTRVFSSALASITLDTSPGSLIPLLDPDSGLLVLAGKGENQLYCYEVTPQQPALSPVTQCILENALRGAALVPRQALAVMNCEVLQVLQLSDTAIIPISHRVPRKAVEFHEDLFPDTAGSVPASDAHTWWAGDNQQVQKVSLNPAHRPHPRFTSSLLPTLEPSPNMEQPAELPRADTELSEGFSSPSSLVSPSTPSSLGLSLSSTSGIGTSPSQRSLQSLLGPSSKFRHAEGTILHRDSHITNLKGLNLTTPGESDGFCANRLRVAVPLLSSGGQVAVLELQKPGRLPDTALPTLQNGAAVMDLVWDPFDPHRLAVAGEDARIRLWRVPPGGLKNVLTTPETVLTGHTEKIYSLRFHPLAADVLASSSYDLTIRIWDLQAGTEQLRLQGHQDQIFSLAWSPDGKQLATVCKDGRVRVYDPRSSPLPLQDGPGPEGGRGARIVWVCNGGCLLVSGFDSRSERQLQLYMADALAEGPSALLGLDVAPSTLLPSYDPDTGLVLLTGKGDTRVFLYEVIPEAPFFLECNSFTSPDPHKGFILLPKTECDIQDVEFARCLRLRQTSLEPVAFRLPRVRKEFFQDDVFPDTAVTWASALDAKAWFKGANGQPRLLSLQPPGMTPVSQAPREVPARRTPSSAQYLEEKSDQQKKEELLNAMVAKLGNREDPLPQDSFEGVDEDEWD | failed |
| MDLVAWETLSFPVVSAAFGASAFLIAVVGTRMTRAADRLADETGLGEAIFGAVLLGSTTSIAGITTSVTAAVDGLPSLAISNAIGGIAAQTVFLAVADMAYRPANLEHAAASVENLLQGALLSTLLAIPLLGMAGPRLDLFGIHPASVLLVAGYLYGIHLVAEARSTPYWVARQTDKTRQDTGAEGRESAALSTLWLEFVALSLVVGAAGYVIAKTGGQVAARTGLSEGLVGGLFTAVSTSLPELVTSVAAVRRGALTLAVGGIIGGNSFDVLFVAFSDVGYQEGSIYHAMTEQQVFIIALTLLLTGILLMGLLRRERRGAFGIGFESFLALVLYFGAFGLLFV | failed |
| MDLVSLVERIGEAPTAALFGLITGITFGVAAQRSRFCLRAATVEFARGRMEDKVAVWLLTFSTALVWVQAAQLMGLMNGADARMMAVPGSWSGAIIGGLMFGAGMVLARGCSGRLLVLAATGNLRSVVSGLIFAVVAQMSLSGLLSPLRDKLAALWITEGGRNMNLLSTFGLPEYGGLVLGLVCAVLALVLARRHRIGAARLVFASGVGFAVALGWVLTYALSQVAFEPVQIESATFTGPSAHTLMFFLDRNAVLEFDVGLVPGVFIGAMIAAALAGEMKIQAFDGPVTMRKAMIGAALMGFGGMLAGGCAIGAGVTGGSIFVGTAWAALFFMWVGAMATDFLIDQRAASPRAA | failed |
| MDLYLDPSILIILIVFGFVAAFIDSVVGGGGLIALPALLFTGLNPASAVATNKLASTMGSATSNIVFYRSGNLNLKSAFKLVPLTFIGSIIGAWTVHLMNPEVLKPLMLIMLGAVAIYTIFKKDWGSISTHKKLSGRHVIIFTFFVFAIGFYDGFLGPGTGSFLMFSLLFIGYDFLKAAGNAKLLNLGSNVGALLMFMYVGQVNYAYGFIMGIAQIAGGIVGSKFAIKKGSGYVRALFITVTCLLLAKNLYDYIQ | failed |
| MDMQHRIRQLFQASIETKQQALEVLPPYIEQASLVMVNALLNEGKILSCGNGGSAGDAQHFSSELLNRFERERPSLPAVALTTDSSTITSIANDYSYNEVFSKQIRALGQPGDVLLAISTSGNSANVIQAIQAAHDREMLVVALTGRDGGGMASLLLPEDVEIRVPSKITARIQEVHLLAIHCLCDLIDRQLFGSEE | not failed |
| MDNFVVTFARGFGTGGKAIASQLAKELGIHCYENRILTLASQLSGLDENVFQEVNEKLREEGGFTSFLRGLPRAKGYISRNEKFKSDDRLFEYQSQIINELADKESCVIVGKCADYVLKNRPNVVSIYIEAPRAFCVERTITNMGVTPEVANATIERTDKFRADYYKYYTHGNYWTNPVNYDLTLNSERVGVENCVKTIEQYLIIKGFIKADMIKPAGELI | failed |
| MDNIPDGDWYCYECVNKATNERKCIVCGGHRPSPVGKMIYCDLCPRAYHADCYIPPLLKVPRGKWYCHGCISRAPPPKKRSAGGTSGSSSKSRRDRDRESGGSAKRRSDNSKTPAMEHMQQQQMPLAGGDSHHHHHQQPPSLNSSHDESM | failed |
| MDNLTHYLATTLRTLRHQRGWSLSRLAEISGVSKAMLGQIERNESSPTVATLWKIATGLNVPFSVFISPPQAEFPPTFDPQQQAMVITPLFPWDPELCFDYFSLLLAPGTVSESTPHKAGVIEHVVVIQGRLDMCTGGVWQTIDAGKGLRFAGDTAHTYRNSSDQTVHFHSLIHYPRD | failed |
| MDNQHNQNHIMGTLQWFIFLLANSIALPIVVGGLFHLTTEEIFYLMQRTFFVVGISSFLQGWLGHRLPIADGPAGSWVGVFTVLAYATAGQDQLHSTLQILELGMIISGIILIGLGVTGFIGRILFLFTPLVTGTFLLLLCLQLSGVFLKGMLGITATISQIDGFTAMIAFSIFLFVIILSNFGKGFVKSYAVLIGLISGWIIFLIAGKVTIPSQVTHFVQLPHIFAWGLPKWNTGMAVSSFVMVCILVSNTVAAIIAINQATIHKATIEQKQLKDGTWVGGISHIISSVFSTVGVVPLPATAGFIRLTKQKYIRSFLMACALLVVMSLFPSIIRYLASLPSAVASAVLMASFVQLIGIGFNNIKQVPMSERNVTILGVAVLFGSGVMFLPSGALQSLPSVMQYIFGNGLFVGTVVSILLEQIWRVGK | not failed |
| MDPEETSVYLDYYYATSPNSDIRETHSHVPYTSVFLPVFYTAVFLTGVLGNLVLMGALHFKPGSRRLIDIFIINLAASDFIFLVTLPLWVDKEASLGLWRTGSFLCKGSSYMISVNMHCSVLLLTCMSVDRYLAIVWPVVSRKFRRTDCAYVVCASIWFISCLLGLPTLLSRELTLIDDKPYCAEKKATPIKLIWSLVALIFTFFVPLLSIVTCYCCIARKLCAHYQQSGKHNKKLKKSIKIIFIVVAAFLVSWLPFNTFKFLAIVSGLRQEHYLPSAILQLGMEVSGPLAFANSCVNPFIYYIFDSYIRRAIVHCLCPCLKNYDFGSSTETSDSHLTKALSTFIHAEDFARRRKRSVSL | failed |
| MDPEIQPPPGKAEIKAKIWKLKTAPKIKHFLWKLLSGALATGDNLKRRHIRNHPQCHRCCQEDETSQHLFFDCFYAQQVWRASGIPHQELRTTGITMETKMELLLSSCLANRQPQLFNLAIWILWRLWKSRNQLVFQQKSISWQNTLQRARNDVQEWEDTNTYVQSLNQQVHSSRHQQPTMARTKWQRPPSTWIKYNYDGAFNHQTRNAKAGWLMRDENGVYMGSGQAIGSTTSDSLESEFQALIIAMQHAWSQGYRKVIFEGDSKQVEELMNNEKLNFGRFNWIREGRFWQKRFEEAVFKWVPRTNNQPADILAKHHLQPNQSFKFHYYVPAFITSTLYYDH | failed |
| MDPEVFAQARLRMDQLTKPPRALGYLEEVALRLAALQGRVKPELGRGAVVVAAADHGVVAEGVSAYPQEVTRQMVLNFLRGGAAINQFALAADCAVYVLDVGVVGELPDHPGLLKRKVRPGTANLAQGPAMTPEEAERALLAGREAARRAIAEGATLLAAGDMGIGNTTAAAALTAALLGLPPEAVVGRGTGVGEEGLRRKRQAVARALARLHPGMGPLEVAAEVGGLELVAIAGIYLEGYEAGLPLVLDGFPVTAGALLAWKMAPGLRDHLFAGHLSREPGHRHQLEALGLRPLLDLDLALGEGTGAVLAMPLLRAAARILHMATFQEAGVSRG | not failed |
| MDPLALLRKAGLEAEGPALPLHGGDISRVWRVGRFVVKTAQDPPPGLFRAEARGLQALAERGVRVPQVHWVGEEGLVLAYLEPGPEDWEGLARTLAALHRRREGSYLAEPGFLGTFPLPGREGGEWTAFFYERCVLPLLEATWDRLQGLGPKVEALYRRPLPAEGPAPLHGDLWHGNVYFAREGPALLDPSFFVGERGVDLAMMRLFGGFPRRFWEVYGELYPVPEEVERALPRYQVYYLLAHVHFFGQGYLGALWRAISAS | failed |
| MDPLEDVLTLLKTRSHLSASLVAGGRWAVRFDAPRVVKFNAVRRGTCQLEVDGIDEPIDLAEGDCYLLTRPRSFTLRSDPETAPVDGGAVFARAEDGIARAGQGDDVFLIGGGFSFGTRAQELLLDRLPPIVHVPADTPHAETVQWALTAIDQELTHRPMASTLIAEHLAVIMLVHVLRLHLERAPHAVSGWLAGLADPVVATALTCLHRDPARSWTVADLADTAAVSRSTLAARFKATVGQGPLEYLTRWRIELAARQLREGNATLASIAHSVGYGSESALSVAFKRVLGMPPGDYRKHPTMP | failed |
| MDPSAPALDSAFWITTGAILLLLILSGFFSGSETALTAASRGKLRSQADKGSKGAQKALAITDDNERLIGSVLLGNNLVNILAASLATALFTRAFGESGVALATLVMTLLVLIFAEVLPKTYAITNSEKAAAAVAPIIGVVVMVFSPVVALVRLLVRGVLRLFGVRIDPDSHIMAVREEIAGALYLGHSEGVVEKEDRDRILGALDLAERTVEEIMLHRSNIVMLDADAEPETILEHCLQSPHTRLPVYRGEPENIIGVVHAKDLFRAMYAQVGGSEGHTARLKDFDISRVANAPYFVPETTTLDDQMRAFLRMRSHFALVVDEYGSLRGLITLEDILEEIVGEITDEFDPAAEMPVTRSDDGQFLVDGAMTIRDVNRAMDWSLPDDEANTVAGLVIHEAQMIPTVGQVFAFHGFRFEVTGREGNRITGLKIRPL | failed |
| MDQNTTPAPGLRETKKRETRQLISDHATRLFIERGFEHTTIAEIADAARVAKKTVTNYFPRKEDLALDHQDEFVAALAATVTARGAGETPLTALRHAFLAAVAAQDPVAGFAGQAFTRMIADSPTLTACLRGLHDRREEALTAALAGTTDTPPDDITPRTAAALLGGVHRVLFNRIQELTLAGRATPEIAEVLAREAPRAFDLLTPALAEYGRRP | not failed |
| MDRDLLRQSLNCHGSSLLSLLRSEQQDNPHFRSLLGSAAEPARGPPPQHPLQGRKEKRVDNIEIQKFISKKADLLFALSWKSDAPATSEINEDSEDHYAIMPPLEQFMEIPSMDRRELFFRDIERGDIVIGRISSIREFGFFMVLICLGSGIMRDIAHLEITALCPLRDVPSHSNHGDPLSYYQTGDIIRAGIKDIDRYHEKLAVSLYSSSLPPHLSGIKLGVISSEELPLYYRRSVELNSNSLESYENVMQSSLGFVNPGVVEFLLEKLGIDESNPPSLMRGLQSKNFSEDDFASALRKKQSASWALKCVKIGVDYFKVGRHVDAMNEYNKALEIDKQNVEALVARGALYATKGSLNKAIEDFELALENCPTHRNARKYLCQTLVERGGQLEEEEKFLNAESYYKKALALDETFKDAEDALQKLHKYMQVIPYFLLEI | failed |
| MDREAFVQTLTACRLCPRLVAWREEVVGRKRAFRGEPYWARPVPGFGDPEARILLFGLAPGAHGSNRTGRPFTGDASGAFLYPLLHEAGLSSKPESLPGDDLRLYGVYLTAAVRCAPPKNKPTPEELRACARWTEVELGLLPEVRVYVALGRIALEALLAHFGLRKSAHPFRHGAHYPLPGGRHLLASYHVSRQNTQTGRLTREMFLEVLMEAKRLAGL | not failed |
| MDRHTTEGWRRWAARLGAAAMALLLAACAAPRQQAASVDELPSWNDGPSRTAIVEFVRAVTRSGGPDFVAADERIAVFDNDGTLWSEQPMYFQMLFALDRVKSMAPRHPDWARRQPFKAALQDDHAALAKGGDVALMKIVGATHTDMSTDTFTRSVRYWASTARHPRFDRLYTELTFAPMRELLDYLRAHGFKTYIVSGGETEFMRSWTQQAYGIPPEQVIGSSFVTTYGVRDGEPTLWRHGKLEFNDDGPGKPVAIQRYIGRRPILAFGNSDGDLQMLQWTAAGDGKRFAGLVHHTDAQREWAYDRDSRIGRLDRALDEARRQDWTVVDMKTEWKRVYAFEQP | not failed |

Reference: a protein production outcome set (Wang et al. 2014)
